Test [1] deals with CBCVA, THCVA, and CBDVA production. The experiment in a line: In vivo TS activity assay, Example 2 protein engineering of A. niger CBCAS, cultures fed divaric acid. The note with it: fed divaric acid; for Mean CBCVA / Mean CBDVA / Mean THCVA: S. cerevisiae strains expressing A. niger CBCAS mutants, secondary screen; for % CBCVA / % CBDVA / % THCVA: share of terminal cannabinoid product profile. Type of test: cell-based, S. cerevisiae. A digest of the protocol: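 S. cerevisiae expressing A. niger CBCAS point mutants (N-terminal MFalpha2, C-terminal HDEL signal peptides) grown 2 days at 30 °C in YEP+4% dextrose, then 4 days at 20 °C in YEP+4% galactose with 1 mM divaric acid plus daily 2% galactose and 1 mM divaric acid spikes, then 2 days with 100 mM sodium citrate pH 5.5. Methanol extracts analysed by LC-MS; quadruplicate.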

Test [2] concerns CBCA, THCA, and CBDA production. Description: In vivo TS activity assay, Example 2 protein engineering of A. niger CBCAS, cultures fed olivetolic acid. Type of test: cell-based, S. cerevisiae. Particulars: for Mean CBCA / Mean CBDA / Mean THCA: secondary screen, olivetolic acid (Table 8); for % CBCA / % CBDA / % THCA: share of terminal cannabinoid product profile. The method, boiled down: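 S. cerevisiae expressing A. niger CBCAS mutants (MFalpha2/HDEL-tagged) grown 2 days at 30 °C in YEP+4% dextrose, then 4 days at 20 °C in YEP+4% galactose with 1 mM olivetolic acid, spiked every 24 h with 2% galactose and 1 mM olivetolic acid. 100 mM citrate pH 5.5 added, methanol-extracted; CBCA, THCA, CBDA quantified by LC-MS.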

B1: t865730 (protein)
chain: MGNTTSIAGRDCLISALGGNSALAVFPNELLWTADVHEYNLNLPVTPAAITYPETAAQIAGVVKCASDYDYKVQARSGGHSFGNYGLGGADGAVVVDMKHFTQFSMDDETYEAVIGPGTTLNDVDIELYNNGKRAMAHGVCPTIKTGGHFTIGGLGPTARQWGLALDHVEEVEVVLANSSIVRASNTQNQDVFFAVKGAAAGFGIVTEFKVRTEPAPGLAVQYSYTFNLGSTAEKAQFVKDWQSFISAKNLTRQFYNNMVIFDGDIILEGLFFGSKEQYDALGLEDHFAPKNPGNILVLTDWLGMVGHALEDTILKLVGNTPTWFYAKSLGFRQDTLIPSAGIDEFFEYIANHTAGTPAWFVTLSLEGGAINDVAEDATAYAHRDVLFWVQLFMVNPVGPISDTTYEFTDGLYDVLARAVPESVGHAYLGCPDPRMEDAQQKYWRTNLPRLQELKEELDPKNTFHHPQGVMPA
As for B1, in test [1], the “Mean CBCVA” value worked out at 3406.05 µg/L, the “Mean CBDVA” value amounted to 0.00 µg/L, the “Mean THCVA” value was 1922.88 µg/L and the “% CBCVA” value worked out at 63.92%. Besides, in test [1], the “% CBDVA” value came out at 0.00% and the “% THCVA” value came out at 36.08%. In test [2], the “Mean CBCA” value came to 27874.45 µg/L, the “Mean CBDA” value amounted to 8385.38 µg/L, the “Mean THCA” value stood at 1771.94 µg/L and the “% CBCA” value is 73.29%. Moreover, in test [2], the “% CBDA” value worked out at 22.05% and the “% THCA” value came out at 4.66%.

B2: t865758 (protein)
chain: MGNTTSIAGRDCLISALGGNSALAVFPNELLWTADVHEYNLNLPVTPAAITYPETAAQIAGVVKCASDYDYKVQARSGGHSFGNYGLGGADGAVVVDMKHFTQFSMDDETYEAVIGPGTTLNDVDIELYNNGKRAMAHGVCPTIKTGGHFTIGGLGPTARQWGLALDHVEEVEVVLANSSIVRASNTQNQDVFFAVKGAAANFGIVTEFKVRTEPAPGLAVQYSYTFNLGSTAEKAQFVKDWQSFISAKNLTRQFYNNMVIFDGDIILEGLFFGSKEQYDALGLEDHFAPKNPGNILVLTDWLGMVGHALEDTILKLVGNTPTWFYAKSLGFRQDTLIPSAGIDEFFEYIANHTAGTPAWFVTLSLEGGAINDVAEDATAYAHRDVLFWVQLFMVNPVGPISDTTYEFTDGLYDVLARAVPESVGHAYLGCPDPRMEDAQQKYWRTNLPRLQELKAELDPKNTFHHPQGVMPA
modifications: expressed in S. cerevisiae strain
Take B2: in test [1], the “Mean CBCVA” value amounted to 3465.87 µg/L, the “Mean CBDVA” value was found to be 0.00 µg/L, the “Mean THCVA” value worked out at 1548.62 µg/L and the “% CBCVA” value stood at 69.12%. In addition, in test [1], the “% CBDVA” value is reported as 0.00% and the “% THCVA” value is listed as 30.88%. In addition, in test [2], the “Mean CBCA” value is 26316.76 µg/L, the “Mean CBDA” value was 6998.62 µg/L, the “Mean THCA” value was 1712.53 µg/L and the “% CBCA” value worked out at 75.13%. Moreover, in test [2], the “% CBDA” value amounted to 19.98% and the “% THCA” value is 4.89%.

B3: t878468 (protein)
chain: MGNTTSIAGRDCLISALGGNSALAVFPNELLWTADVHEYNLNLPVTPAAITYPETAEQIAGVVKCASDYDYKVQARSGGHSFGNYGLGGADGAVVVDMKHFTQFSMDDETYEAVIGPGTTLNDVDIELYNNGKRAMAHGVCPTIKTGGHFTIGGLGPTARQWGLALDHVEEVEVVLANSSIVRASNTQNQDVFFAVKGAAANFGIVTEFKVRTEPAPGLAVQYSYTFNLGSTAEKAQFVKDWQSFISAKNLTRQFYNNMVIFDGDIILEGLFFGSKEQYDALGLEDHFAPKNPGNILVLTDWLGMVGHALEDTILKLVGNTPTWFYAKSLGFRQDTLIPSAGIDEFFEYIANHTAGTPAWFVTLSLEGGAINDVAEDATAYAHRDVLFWVQLFMVNPVGPISDTTYEFTDGLYDVLARAVPESVGHAYLGCPDPRMEDAQQKYWRTNLPRLQELKEELDPKNTFHHPQGVMPA
modifications: expressed in S. cerevisiae strain
Turning to B3, in test [1], the “Mean CBCVA” value came out at 2954.90 µg/L, the “Mean CBDVA” value is 0.00 µg/L, the “Mean THCVA” value stood at 1628.92 µg/L and the “% CBCVA” value stood at 64.46%. Also, in test [1], the “% CBDVA” value came to 0.00% and the “% THCVA” value came out at 35.54%. Moreover, in test [2], the “Mean CBCA” value was determined as 26823.18 µg/L, the “Mean CBDA” value is 8556.40 µg/L, the “Mean THCA” value turned out to be 1922.88 µg/L and the “% CBCA” value is recorded as 71.91%. Further, in test [2], the “% CBDA” value is 22.94% and the “% THCA” value was 5.15%.

B4: t865795 (protein)
chain: MGNTTSIAGRDCLISALGGNSALAVFPNELLWTADVHEYNLNLPVTPAAITYPETAAQIAGVVKCASDYDYKVQARSGGHSFGNYGLGGADGAVVVDMKHFTQFSMDDETYEAVIGPGTTLNDVDIELYNNGKRAMAHGVCPTIKTGGHFTIGGLGPTARQWGLALDHVEEVEVVLANSSIVRASNTQNQDVFFAVKGAAANFGIVTEFKVRTEPAPGLAVQYSYTFNLGSTAEKAQFVKDWQSFISAKNLTRQFYNNMVIIDGDIILEGLFFGSKEQYDALGLEDHFAPKNPGNILVLTDWLGMVGHALEDTILKLVGNTPTWFYAKSLGFRQDTLIPSAGIDEFFEYIANHTAGTPAWFVTLSLEGGAINDVAEDATAYAHRDVLFWVQLFMVNPVGPISDTTYEFTDGLYDVLARAVPESVGHAYLGCPDPRMEDAQQKYWRTNLPRLQELKEELDPKNTFHHPQGVMPA
modifications: expressed in S. cerevisiae strain
Consider B4, for which, in test [1], the “Mean CBCVA” value stood at 1897.16 µg/L, the “Mean CBDVA” value is 0.00 µg/L, the “Mean THCVA” value was 1181.24 µg/L and the “% CBCVA” value is 61.63%. Besides, in test [1], the “% CBDVA” value is 0.00% and the “% THCVA” value worked out at 38.37%. In test [2], the “Mean CBCA” value is 24874.10 µg/L, the “Mean CBDA” value was found to be 7028.82 µg/L, the “Mean THCA” value came out at 1807.99 µg/L and the “% CBCA” value was determined as 73.79%. Besides, in test [2], the “% CBDA” value is reported as 20.85% and the “% THCA” value turned out to be 5.36%.

B5: t878466 (protein)
chain: MGNTTSIAGRDCLISALGGNSALAVFPNELLWTADVHEYNLNLPVTPAAITYPETAAQIAGVVKCASDYDYKVQARSGGHSFGNYGLGGADGAVVVDMKHFTQFSMDDETYEAVIGPGTTLNDVDIELYNNGKRAMAHGVCPTIKTGGHFTIGGLGPTARKWGLALDHVEEVEVVLANSSIVRASNTQNQDVFFAVKGAAANFGIVTEFKVRTEPAPGLAVQYSYTFNLGSTAEKAQFVKDWQSFISAKNLTRQFYNNMVIFDGDIILEGLFFGSKEQYDALGLEDHFAPKNPGNILVLTDWLGMVGHALEDTILKLVGNTPTWFYAKSLGFRQDTLIPSAGIDEFFEYIANHTAGTPAWFVTLSLEGGAINDVAEDATAYAHRDVLFWVQLFMVNPVGPISDTTYEFTDGLYDVLARAVPESVGHAYLGCPDPRMEDAQQKYWRTNLPRLQELKEELDPKNTFHHPQGVMPA
modifications: expressed in S. cerevisiae strain
For B5, in test [1], the “Mean CBCVA” value is 2985.03 µg/L, the “Mean CBDVA” value was 0.00 µg/L, the “Mean THCVA” value is 1623.40 µg/L and the “% CBCVA” value came out at 64.77%. For the same molecule, in test [1], the “% CBDVA” value was 0.00% and the “% THCVA” value is given as 35.23%. In addition, in test [2], the “Mean CBCA” value was determined as 23882.09 µg/L, the “Mean CBDA” value is 8030.74 µg/L, the “Mean THCA” value is 1649.00 µg/L and the “% CBCA” value is given as 71.16%. For the same molecule, in test [2], the “% CBDA” value is given as 23.93% and the “% THCA” value amounted to 4.91%.

B6: t865735 (protein)
chain: MGNTTSIAGRDCLISALGGNSALAVFPNELLWTADVHEYNLNLPVTPAAITYPETAAQIAGVVKCASDYDYKVQARSGGHSFGNYGLGGADGAVVVDMKHFTQFSMDDETYEAVIGPGTTLNDVDIELYNNGKRAMAHGVCPTIKTGGHFTIGGLGPTARQWGLALDHVEEVEVVLANSSIVRASNTQNQDVFFAVKGAAANFGIVTEFKVRTEPAPGLAVQYSYTFNLGSTAEKAQFVKDWQSFISAKNLTRQFYNNMVIFDGDIILEGLFFGSKEQYDALGLEDHFAPKNPGNILVLTDWLGMVGHALEDTILKLVGNTPTWFYAKSLGFRQDTLIPSAGIDEFFEYIANHTAGTPAWFVTLSLEGGAINDVAEDATAYAHRDVLFWVQLFMVNPVGPISDTTYEFTDGLYDVLARAVPESVGHAYLGCPDPRMEDAQQKYWRPNLPRLQELKEELDPKNTFHHPQGVMPA
On to B6, for which, in test [1], the “Mean CBCVA” value was 2900.35 µg/L, the “Mean CBDVA” value stood at 0.00 µg/L, the “Mean THCVA” value came to 1459.81 µg/L and the “% CBCVA” value is listed as 66.52%. In test [1], the “% CBDVA” value amounted to 0.00% and the “% THCVA” value is recorded as 33.48%. Further, in test [2], the “Mean CBCA” value is 27519.94 µg/L, the “Mean CBDA” value came out at 7436.20 µg/L, the “Mean THCA” value was 1783.72 µg/L and the “% CBCA” value was 74.90%. In test [2], the “% CBDA” value turned out to be 20.24% and the “% THCA” value turned out to be 4.85%.
